experiment: label from the status in PepcDB records

Question: With “MTMLDAAAPPDLAGLFAPAQRRSRTVDWQEPGPVARAAMAMSGLEVMQAIRDGRLPPPPLARLIGFKMAEVHRGRIVMQLDPDQSLENTAGLLHGAIAAALLDTAMGCAISTQQPAGQGSVTMDLKLSYLRPLSVRSGTIVAEGRVVKLGRQSSYTEGFVYDGAGKLAVHATATFAMLGAGPVAAPHPHES” as the sequence, how does the protein production read?
Answer: Its protein production is “failed”.

Question: With “MTMLLDGGPQFPGLGVGSFGAPRHHEMPNREPAGMGLNPFGDSTHAAAAAAAAAAFKLSPAAAHDLSSGQSSAFTPQGSGYANALGHHHHHHHHHHHTSQVPSYGGAASAAFNSTREFLFRQRSSGLSEAASGGGQHGLFAGSASSLHAPAGIPEPPSYLLFPGLHEQGAGHPSPTGHVDNNQVHLGLRGELFGRADPYRPVASPRTDPYAAGAQFPNYSPMNMNMGVNVAAHHGPGAFFRYMRQPIKQELSCKWIDEAQLSRPKKSCDRTFSTMHELVTHVTMEHVGGPEQNNHVCYWEECPREGKSFKAKYKLVNHIRVHTGEKPFPCPFPGCGKIFARSENLKIHKRTHTGEKPFKCEFEGCDRRFANSSDRKKHMHVHTSDKPYICKVCDKSYTHPSSLRKHMKVHESQGSDSSPAASSGYESSTPPAIASANSKDTTKTPSAVQTSTSHNPGLPPNFNEWYV” as the sequence, how does the protein production read?
Answer: Its protein production is “not failed”.

Question: For “MTMLLSIIVPTFKPQKTYFEECLFSLFNQTMFHYLYEVIVVLNGDIDTQYTDMILDIFAYKPAGLYCRLIKTDQAGVSNARNLGIDAAKGQYIGFVDDDDIVSSDYLEELCKISSRNIVGVSNVHTFRKTIEEKEDNFFACRIIQQRECQYSLFRNRAILAFPVAKLIHRDIIGNRRFNPRFKNGEDALFMTEISDLIGGFRFTKEYTTYYVRERAGSASRRPLKRGQLCWDTFMLIKAYVSIYLSSPFSYNFLLFASRIPGSIKGAIKLSRNTAFFLEHHHHHH”, which protein production is on record?
Answer: Its protein production is “failed”.

Question: For “MTMMTATQALSVNPATGQTLAAMPWANAQEIEHALSLAASGFKKWKMTSVAQRAQTLRDIGQALRAHAEEMAQCITREMGKPIKQARAEVTKSAALCDWYAEHGPAMLNPEPTLVENQQAVIEYRPLGVILAIMPWNFPLWQVLRGAVPILLAGNSYLLKHAPNVTGCAQMIARILAEAGTPAGVYGWVNANNEGVSQMINDPRIAAVTVTGSVRAGAAIGAQAGAALKKCVLELGGSDPFIVLNDADLELAVKAAVAGRYQNTGQVCAAAKRFIVEEGIAQAFTDRFVAAAAALKMGDPLVEENDLGPMARFDLRDELHQQVQASVAEGARLLLGGEKIAGEGNYYAATVLADVTPDMTAFRQELFGPVAAITVAKDAAHALALANDSEFGLSATIFTADDTLAAEMAARLECGGVFINGYSASDARVAFGGVKKSGFGRELSHFGLHEFCNVQTVWKNRV”, which protein production is on record?
Answer: Its protein production is “failed”.

Question: Which protein production does the source give for “MTMYADLVLHGGSIATLDDKLEQAQAVAIAAGRIIAVGSDAHCLALAGPGTRRIGLGGACVMPGINDSHCHPDGQAVKAGRWDDVSQVATQQALLARIADFHRRMPAGAWYLGFRFDDTHSGGYPARQALEQAAPGRPVFLLRRDAQVGLASAPALAALLASGLATQVPPHCLDAATGLARGRGVFAFTTHIAAADSLDDYLEGFPTLFAEMGRMGITSVHNALTSALAVQAYRALHGAGRLPVRVGMMLNGRDQRLVDETLAAGLRFGAGDDRLYLLGVEYGSDGSTSGRTAAYYQPYVGEEGGDGRPANRGDVNFSAEDLAAKVGRVMAAGLQAAATGNGDRGIDFALDAFEQGLRAHPGAVPPRIEHCCCAPPAIQQRMAALGVIDSSAAGFAYNLGDAYLRNRPSAEMAWMWPHRDMLDRGVLVCAHSDAPVCERNPFLGMWSMVTRKTASGASLGAGQAITPLEAMRCYTANPARAEGQAARKGTLSPGKLADLIVLDRDPCAVDPDEIRHTQVLATLVGGQATYRAAGAPSWADELPMRE” here?
Answer: Its protein production is “failed”.

Question: Which protein production does the source give for “MTNAMELYQMLPKTNCKKCGKTSCMAFAVALMARELTPEDCPPLKEEPKYKESYEKLSEIFKPSEGATETGLIVHEDLCFGCGNCVVACPPNVANDPYGVGSGKAPTNPGRLVLTVEDGVVKAQNLGECRRFGKNKILCNGCIVTCPVEAIEFV” here?
Answer: The protein production was “failed”.

Question: For “MTNFNIDFYAPAKEQRASTHSVMGLSSVPHPSPLFLETPYSELWSRHFGSAVVSLSVTADLAMLAVACKNRQLTVLSRDGELHWSHRLDDDITATAIASNHHVAVGTQQASDGAVAVYLFDADGRELFRTSLKSAVSSLTHSSNGEHLVIQCKNQAWYIASRVADTYQLSQANAEDVAQSKRNDALLAVKDRLLSEPNLYPHAASVAVSLEGTAAIGSLDGKIHLIDCQGKPLWSRQVDGEVWTLGISENGAIIASGCTDGTVKLLANHAHDAYNQYIHALQHSAERLKNTAEQQQAVSEILASLSQTGLAVYAVNWLQEGTLQLAPDALDEIVIKLLSEQVQRFPKHYASHFILAQTYQRRQEWHQAARHFTWAGQNERMKLKSFTLAAESFQKAGLPFAAKSAYRRARELTVTEEAKKTLYTLGRIHEEQGSITDAQKYYEVVFTLNPDYLDVCARLQNLNSPPATLTSRAVPENKDWYASLIRELLSPVSQHGFDLARQDNPAHSRTARLTSVAEHRKRLLSIVSEFSLDSVDNTADARLGYDVAAYMRYDCSVPEDEAKKSLELVNMLDCIKHYGPFSKSLDIGAATGRYPTLLAQQGIQAFGVDLEPMAVEFARKKSNGALNPQFHQGDARDLPFESTQFDLVTCMMGTAAHFPRQDVPTVMSEIHRCLVPGGFCVISTWDIECPHLTYLSIYSHEQKELMRQNAISRADVSEIAIAQGFVVEEIRGVGLLPESLGYELDLQQDGPERIRNLLDMDLAFQAKFPDLHGQMYMLIIRKI”, which protein production is on record?
Answer: Its protein production is “failed”.

Question: For “MTNFQRARSEEQRAVRRQAILDTTAAMLEEMPVGEVSLNELSRRVGLAKSNVLRYFESREAILLELLDRAWQQWVADLPALVHAGVDQGAPVSRRAEQFAAVIAASLAGRQVLCDLLSAQAGVLEHNVSPQVAARYKRAAVANVADIAALAHQHLPELGASAPQLTAVMIMAVGAVWTHARPSPAMLSAYEADPSLTAFKLDFVTTLQEMLATLTAGTIARESA”, which protein production is on record?
Answer: The protein production was “not failed”.

Question: Which protein production does the source give for “MTNHNNSGKKKVAILIEQAVEDTEFIIPCNGLKQAGFEVVVLGSRMNEKYKGKRGRLSTQADGTTTEAIASEFDAVVIPGGMAPDKMRRNPNTVRFVQEAMEQGKLVAAVCHGPQVLIEGDLLRGKQATGFIAISKDMMNAGADYLDEALVVDGNLITSREPGDLAIFTTAILSRLGYGGKDAALPDEKDRNAEWWKLADAWGGSTKGDIVRGLNTALGGERYSLEALEKYTEKESDVEAKALFQEMITNKQRHIEYLETYLTRLGEKPSLSANIANQYAKVKTALTGSDDIYQIRSALGDIQTGIGDIGNLCAMYTDPIATAIFKEIYKDLVKYEQRLVSLYRTRTNATVQPPKPTTGAAVSM” here?
Answer: Its protein production is “not failed”.

Question: With “MTNIIKIRASVFIPMSWTEAKMDMETGQVIQFEGDSREFTPHAVNTMRSRVEQEVVVDFYKQEVFSYANTGITTEKVISPDGSVNKRTGKASTENIVCTDIVWNSGGVQFKMSASASNPLNVYAPPVDYVLNVCVKKDGSIDVQGEHDGFPCFEFYKQVDFGPFEKIYTHDFRETGDTAAALGGNMDYSFTKRL” as the sequence, how does the protein production read?
Answer: Its protein production is “not failed”.

Question: For “MTNKVKSKRIAAIDWMRGFVMIIMVLDHVSMAYNKEHLSTDSAASYIIGSPLPAFEFFTRWISHICAPVFVFLAGTALAISVERKLSRGFDSKAIDKDILLRGAFIALLDPTITSFFSGKLIFQVLYAIGIAMMCMAFFRRLSSTQLLIIAMAWILGGELVTAQFWFAGGQEQSIIVALLIGKYSSADLSISYALVPWLSVMILGWVFGRYILDYGDGKVTISPANLLFRLGFTALAAFIAIRYFNDYGNMFLLREDNSWQQWLHVSKYPPSASFIMLELGLMAVILALMIKVEQRIGVRPNGVLLVFGQTSMMFYLVHRIFLTGTATYGGLSDFTNLTNTYIISGVLLLLLFPFCIWYRSFKVKHPDSLWLKYL”, which protein production is on record?
Answer: Its protein production is “failed”.

Question: With “MTNLTNYHSHCLYCDGRANMEDFIRFAISEGFSSYGISSHAPLPFSTAWTMEWDRMDDYLSEFARLKEKYADKIELAIGLEIDYLNEESHPAIPRFQELPLDYRIGSVHMLYSPQGKVVDIDTPADIFRQLIDAHFEGDLDYVVHLYYKNLLRMVELGGFDILGHADKMHYNASCYRPGLLDEPWYDALVRDYFAEIARHGYIVEINTKSYHDLGTFYPNERYFPLLKELGIRVQVNSDAHYPERINNSRAEALAALKKVGFDTVVEWHGGQWKDMPLLQLEHHHHHH” as the sequence, how does the protein production read?
Answer: The protein production was “not failed”.

Question: With “MTNQHRASFPSPTRGEGRTRTALATLFLSILFLILPALAARAMDIQQVTSPKGITAWLVEDYSVPIVAVRFVFGGGSTQDPVGKEGLTNLMTGLFDEGAGPLDSEAFQVRLDDAGAEMSFEETRDGVYGSMRMLAEQRDEAFDLLRLAVNEPRFDQAPIDRIRAQILSGIIANENDPDTVAQHRWARAVYGDHPYSRSDQGTRQSIAAITKDDLKALHKAVFARGGLHVAVVGAIDAETLKKKLDMVFGDLPQNQALTPVADVEPKLAQRVEVNYDLPQTSLQLAWPGVKRKSADFFPAVLMNEILGGGTFTSRLFAEVREKRGLAYSVNSSLVNQDHADALIVTTGTRSDRAAETLGIVRDVARQLAEEGPTEAELAATKKYLIGAYAITNLDSSSSIAATLVELQLDDLGIDYMQRRAGYINAVTLDQVKAAAKKLLTAEPTIMVVGPPLAGAGKG” as the sequence, how does the protein production read?
Answer: The protein production was “failed”.

Question: Which protein production does the source give for “MTNTLKTSYQKTPYKLGGNGPRNVGVLTEALQNIDDNLESDIYGNGAVIEDFETKIAKILGKQSAVFFPSGTMAQQIALRIWADRKENRRVAYHPLSHLEIHEQDGLKELQQITPLLLGTANQLLTIDDIKSLREPVSSVLIELPQREIGGQLPAFEELEKISEYCHEQGISLHLDGARLWEITPFYQKSAEEICALFDSVYVSFYKGIGGIAGAILAGNDDFVQEAKIWKRRYGGDLISLYPYILSADYYFEKRIGKMAEYFEAAKGLAERFNSCSGVKTVPEVPVSNMFHVYFENSADEIGAILTKIQDETGVGISGYLQEKSADVCAFEVSVGDAFAEIPAKNLELVFRCLEKEL” here?
Answer: The protein production was “not failed”.

Question: With “MTNWLIAYQGEPGAYSEIAALRFGEPLPCESFDDVFSAVTEQKADYAVIPIENSLGGSIHQNYDLLLRRPVVILAETFVKVEHCLLGLPGASVETATKAMSHPQALVQCHNFFATHPQIRAEAAYDTAGSAKMVAESRDKSALAIASKRAGELYGLDILKENLADEEWNITRFFCIAHENNPDISHLKVRPDVARQKTSIVFALPNEQGSLFRALATFALRGIDLTKIESRPSRKKAFEYLFYADFIGHREDQNVHNALENLREFATMVKVLGSYGVVNP” as the sequence, how does the protein production read?
Answer: Its protein production is “not failed”.

Question: With “MTNWTEIDEIAKKWIREAGARITQSMHESLTIETKSNPNDLVTNIDKETEKFFIDRIQETFPGHRILGEEGQGDKIHSLEGVVWIIDPIDGTMNFVHQQRNFAISIGIFENGEGKIGLIYDVVHDELYHAFSGRGAYMNETKLAPLKETVIEEAILAINATWVTENRRIDQSVLAPLVKRVRGTRSYGSAALELANVAAGRIDAYITMRLAPWDYAAGCVLLNEVGGTYTTIEGEPFTFLENHSVLAGNPSIHKTIFEEYLHARK” as the sequence, how does the protein production read?
Answer: The protein production was “failed”.

Question: With “MTPAARLSAAIELIDTIERDRVPAAKALKEWGTAHRFAGSGDRAAIAGLVWDVLRRYASSAFLMDADTARARLIGMLRLERDMDAATMAALFDGSRFAPAPLTEAEQAALSHRSLRDAPAAIAGDYPEWLDPHLAKVFGEDRAAEAAAMASRAPLDLRVNTLKSNRDKVLRALAHLHAKPTPWSATGLRIELSADARNPGIQAEEDFIKGAVEVQDEGSQLAAQFTAAKPGEQVIDLCAGAGGKTLALAAMMQGKGRLIATDSDKRQLAPIHERLSRAGVHNADVRTPKGEADPLADISATADLVVIDAPCTGTGTWRRNPDAKWRMRPGALEIRLRDQAEVLERAVPLVKLGGRIAYITCSVLAEENGEQVRAFIGRHPEFAVVPPEQIASVLWDKAEDFAKAALQSPEGWLMTPRRTGTDGFFVSVLKKTA” as the sequence, how does the protein production read?
Answer: Its protein production is “failed”.
